In the supplement of paper PMC9112550, “Optimization of the antimicrobial peptide Bac7 by deep mutational scanning” (BMC Biology, 2022):

system: Escherichia coli TOP10; experiment: shrunken log2 fold change of peptide-encoding DNA abundance (4.5 h post-induction vs induction); higher = less antimicrobial activity (less host growth inhibition); details: time post-induction: 4.5 h; library: site-saturation at positions 5, 18, 19, 20
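Further: peptides expressed intracellularly from a pBAD plasmid library in pooled LB shake-flask culture, induced with 0.3% L-arabinose, DNA abundance read by NGS, three biological replicates, DESeq2 with apeglm shrinkage.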

Point of comparison: RRIRARPPRLPRPRPRPREHPRP, “shrunken log2 fold change” value 0.376. Against it:
- RRIRRRPPRLPRPRPRPQRNPRP — within 0.2 log units, 0.245
- RRIRERPPRLPRPRPRPSGEPRP — lower, -0.157
- RRIRSRPPRLPRPRPRPMVSPRP — lower, 0.0287
- RRIRARPPRLPRPRPRPWHQPRP — lower, 0.0524
- RRIRVRPPRLPRPRPRPDLAPRP — higher, 3.31
- RRIRKRPPRLPRPRPRPQNPPRP — lower, 0.0671
- RRIRPRPPRLPRPRPRPVRYPRP — within 0.2 log units, 0.346
- RRIRIRPPRLPRPRPRPVIHPRP — lower, -0.248
- RRIRRRPPRLPRPRPRPSRLPRP — within 0.2 log units, 0.177
- RRIRIRPPRLPRPRPRPNKLPRP — lower, -0.499
- RRIRPRPPRLPRPRPRPGCFPRP — lower, 0.158
- RRIRGRPPRLPRPRPRPSEIPRP — lower, -0.193
- RRIRIRPPRLPRPRPRPMDAPRP — lower, 0.0153
- RRIRERPPRLPRPRPRPWSLPRP — lower, -0.0112
- RRIRQRPPRLPRPRPRPAFWPRP — within 0.2 log units, 0.382
- RRIRARPPRLPRPRPRPEYNPRP — lower, 0.102
- RRIRHRPPRLPRPRPRPFKPPRP — lower, -0.163
- RRIRMRPPRLPRPRPRPVTMPRP — lower, 0.116
- RRIRNRPPRLPRPRPRPHNCPRP — lower, -0.0167
- RRIRYRPPRLPRPRPRPTCVPRP — lower, -0.503
- RRIRYRPPRLPRPRPRPLSHPRP — lower, -0.678
- RRIRSRPPRLPRPRPRPWNAPRP — lower, -0.443
- RRIRWRPPRLPRPRPRPVFYPRP — lower, -0.193
- RRIRPRPPRLPRPRPRPDINPRP — lower, -0.673
- RRIRHRPPRLPRPRPRPYTGPRP — lower, -0.304
- RRIRYRPPRLPRPRPRPWAHPRP — lower, -0.324
- RRIRCRPPRLPRPRPRPDISPRP — lower, 0.0772
- RRIRIRPPRLPRPRPRPWPLPRP — lower, -0.122
- RRIRFRPPRLPRPRPRPRYQPRP — lower, -0.738
- RRIRHRPPRLPRPRPRPNIYPRP — lower, -0.11
- RRIRRRPPRLPRPRPRPNAAPRP — higher, 0.794
- RRIRSRPPRLPRPRPRPKILPRP — lower, -0.112
- RRIRIRPPRLPRPRPRPFLFPRP — lower, -0.586
- RRIRSRPPRLPRPRPRPYSTPRP — lower, -1.05
- RRIRSRPPRLPRPRPRPVLVPRP — within 0.2 log units, 0.242
- RRIRCRPPRLPRPRPRPPKDPRP — within 0.2 log units, 0.261
- RRIRKRPPRLPRPRPRPGWIPRP — higher, 1.07
- RRIRWRPPRLPRPRPRPTCDPRP — within 0.2 log units, 0.388
- RRIRCRPPRLPRPRPRPNIGPRP — lower, -0.138
- RRIRVRPPRLPRPRPRPLNYPRP — lower, -0.621
- RRIRSRPPRLPRPRPRPMLDPRP — lower, -0.291
- RRIRKRPPRLPRPRPRPATAPRP — within 0.2 log units, 0.18
- RRIRKRPPRLPRPRPRPPAMPRP — higher, 0.635
- RRIRERPPRLPRPRPRPRCRPRP — lower, 0.113
- RRIRIRPPRLPRPRPRPRGAPRP — lower, 0.175
- RRIRDRPPRLPRPRPRPSQEPRP — lower, 0.111
- RRIRSRPPRLPRPRPRPMNNPRP — lower, -0.479
- RRIRQRPPRLPRPRPRPSLHPRP — lower, -0.64
- RRIRTRPPRLPRPRPRPKIQPRP — lower, -0.0936
- RRIRVRPPRLPRPRPRPDAGPRP — lower, 0.13
- RRIRYRPPRLPRPRPRPQWQPRP — lower, -0.00114
- RRIRERPPRLPRPRPRPKGAPRP — within 0.2 log units, 0.216
- RRIRRRPPRLPRPRPRPKLTPRP — lower, 0.0538
- RRIRHRPPRLPRPRPRPQRNPRP — lower, -0.223
- RRIRIRPPRLPRPRPRPARLPRP — lower, -0.0547
- RRIRCRPPRLPRPRPRPVVIPRP — lower, -0.223
- RRIRGRPPRLPRPRPRPVYPPRP — lower, -0.129
- RRIRFRPPRLPRPRPRPYHNPRP — lower, -0.882
- RRIRWRPPRLPRPRPRPAYNPRP — lower, -0.389
- RRIRRRPPRLPRPRPRPGPHPRP — within 0.2 log units, 0.437
- RRIRQRPPRLPRPRPRPYLQPRP — lower, 0.000139
- RRIRERPPRLPRPRPRPDVMPRP — lower, 0.0164
- RRIRTRPPRLPRPRPRPMSCPRP — lower, -0.181
- RRIRVRPPRLPRPRPRPKMKPRP — higher, 0.839
- RRIRERPPRLPRPRPRPEACPRP — lower, -0.0166
- RRIRCRPPRLPRPRPRPDSDPRP — lower, -0.0612
- RRIRPRPPRLPRPRPRPEAQPRP — higher, 0.904
- RRIRTRPPRLPRPRPRPSLKPRP — lower, -0.359
- RRIRTRPPRLPRPRPRPVHDPRP — lower, -0.0747
- RRIRARPPRLPRPRPRPFYMPRP — lower, -0.45
- RRIRMRPPRLPRPRPRPCMQPRP — lower, -0.143
- RRIRIRPPRLPRPRPRPAEGPRP — lower, -0.122
- RRIRLRPPRLPRPRPRPYHDPRP — lower, -0.131
- RRIRMRPPRLPRPRPRPAPKPRP — higher, 0.675
- RRIRTRPPRLPRPRPRPQVCPRP — lower, 0.0443
- RRIRIRPPRLPRPRPRPQSCPRP — lower, -0.0388
- RRIRHRPPRLPRPRPRPAAEPRP — within 0.2 log units, 0.334
- RRIRIRPPRLPRPRPRPFCNPRP — lower, -0.553
- RRIRHRPPRLPRPRPRPGWQPRP — within 0.2 log units, 0.33
- RRIRDRPPRLPRPRPRPPLIPRP — lower, 0.129
- RRIRSRPPRLPRPRPRPPGPPRP — higher, 0.64
- RRIRIRPPRLPRPRPRPWPIPRP — lower, -0.0934
- RRIRKRPPRLPRPRPRPEDYPRP — higher, 1.15
- RRIRNRPPRLPRPRPRPMYDPRP — lower, 0.0456
- RRIRKRPPRLPRPRPRPRYRPRP — lower, -0.0384
- RRIRYRPPRLPRPRPRPPLCPRP — lower, -0.173
- RRIRFRPPRLPRPRPRPEYPPRP — lower, -0.617
- RRIRDRPPRLPRPRPRPPDAPRP — higher, 0.65
- RRIRHRPPRLPRPRPRPCWFPRP — lower, -0.499
- RRIRRRPPRLPRPRPRPGKWPRP — lower, 0.152
- RRIRQRPPRLPRPRPRPMPQPRP — lower, 0.00445
- RRIRCRPPRLPRPRPRPFIYPRP — lower, -0.808
- RRIRHRPPRLPRPRPRPNDPPRP — lower, -0.246
- RRIRHRPPRLPRPRPRPWLGPRP — lower, -0.0973
- RRIRERPPRLPRPRPRPMLIPRP — lower, -0.266
- RRIRNRPPRLPRPRPRPVHWPRP — within 0.2 log units, 0.384
- RRIRERPPRLPRPRPRPMMPPRP — lower, 0.0391
- RRIRRRPPRLPRPRPRPQFTPRP — lower, -0.0485
- RRIRHRPPRLPRPRPRPFHLPRP — lower, -0.438
- RRIRFRPPRLPRPRPRPDQVPRP — lower, 0.0246
- RRIRFRPPRLPRPRPRPWSGPRP — lower, -0.221
- RRIRRRPPRLPRPRPRPTCGPRP — within 0.2 log units, 0.506
- RRIRKRPPRLPRPRPRPLWAPRP — within 0.2 log units, 0.452
- RRIRDRPPRLPRPRPRPKWHPRP — within 0.2 log units, 0.179
- RRIRRRPPRLPRPRPRPQDEPRP — lower, -0.0204
- RRIRDRPPRLPRPRPRPCWTPRP — lower, 0.122
- RRIRPRPPRLPRPRPRPHRHPRP — lower, -0.47
- RRIRLRPPRLPRPRPRPYSPPRP — lower, -0.299
- RRIRNRPPRLPRPRPRPQVWPRP — lower, 0.0895
- RRIRMRPPRLPRPRPRPTAQPRP — higher, 0.819
- RRIRWRPPRLPRPRPRPYTHPRP — lower, -0.536
- RRIRYRPPRLPRPRPRPVAVPRP — higher, 3.17
- RRIRIRPPRLPRPRPRPWCTPRP — lower, -0.757
- RRIRNRPPRLPRPRPRPKFMPRP — lower, -0.0904
- RRIRWRPPRLPRPRPRPTELPRP — lower, 0.135
- RRIRYRPPRLPRPRPRPYPAPRP — lower, -0.641
- RRIRCRPPRLPRPRPRPYDEPRP — lower, -0.144
- RRIRARPPRLPRPRPRPCMHPRP — lower, -0.226
- RRIRDRPPRLPRPRPRPRQYPRP — lower, -0.332
- RRIRKRPPRLPRPRPRPYQVPRP — lower, 0.0805
- RRIRYRPPRLPRPRPRPASNPRP — lower, -0.0548
- RRIRTRPPRLPRPRPRPSEHPRP — lower, -0.383
- RRIRHRPPRLPRPRPRPVLSPRP — lower, -0.386
- RRIRVRPPRLPRPRPRPPISPRP — lower, 0.0369
